B1: GpH7-A5/GpH7-B3 variant K334_03V/GpL16-k0 (antibody, human IgG1, kappa)
heavy 1: not shown
heavy 2: not shown
light: DIVMTQSPLSLPVTPGEPASISCQASESLVHSNRNTYLHWYLQKPGQSPQLLIYKVSNRFSGVPDRFSGSGSGTDFTLKISRVEAEDVGVYYCSQNTHVPPTFGQGTKVEIERTVAAPSVFIFPPSDEQLKSGTASVVCLLNNFYPREAKVQWKVDNALQSGNSQESVTEQDSKDSTYSLSSTLTLSKADYEKHKVYACEVTHQGLSSPVTKSFNRGEC
notes: also called He Ab K334_03V
B2: GpH7-B3 variant A327_03V/GpL16-k0 (antibody, human IgG1, kappa)
heavy: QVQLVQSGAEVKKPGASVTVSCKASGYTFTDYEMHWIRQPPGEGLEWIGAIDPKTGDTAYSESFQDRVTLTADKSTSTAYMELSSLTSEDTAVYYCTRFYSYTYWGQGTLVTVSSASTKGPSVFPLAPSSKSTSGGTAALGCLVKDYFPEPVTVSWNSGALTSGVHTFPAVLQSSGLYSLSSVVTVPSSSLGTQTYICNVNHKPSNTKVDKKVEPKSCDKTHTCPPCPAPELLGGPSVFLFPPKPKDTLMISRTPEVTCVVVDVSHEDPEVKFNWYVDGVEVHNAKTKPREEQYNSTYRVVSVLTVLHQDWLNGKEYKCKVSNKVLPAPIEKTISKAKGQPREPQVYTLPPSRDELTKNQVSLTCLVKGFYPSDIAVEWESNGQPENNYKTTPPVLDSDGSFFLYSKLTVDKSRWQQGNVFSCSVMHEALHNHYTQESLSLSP
light: B1 light
notes: also called Ho Ab A327_03V
B3: GpH7-B3 variant A327_13S/GpL16-k0 (antibody, human IgG1, kappa)
heavy: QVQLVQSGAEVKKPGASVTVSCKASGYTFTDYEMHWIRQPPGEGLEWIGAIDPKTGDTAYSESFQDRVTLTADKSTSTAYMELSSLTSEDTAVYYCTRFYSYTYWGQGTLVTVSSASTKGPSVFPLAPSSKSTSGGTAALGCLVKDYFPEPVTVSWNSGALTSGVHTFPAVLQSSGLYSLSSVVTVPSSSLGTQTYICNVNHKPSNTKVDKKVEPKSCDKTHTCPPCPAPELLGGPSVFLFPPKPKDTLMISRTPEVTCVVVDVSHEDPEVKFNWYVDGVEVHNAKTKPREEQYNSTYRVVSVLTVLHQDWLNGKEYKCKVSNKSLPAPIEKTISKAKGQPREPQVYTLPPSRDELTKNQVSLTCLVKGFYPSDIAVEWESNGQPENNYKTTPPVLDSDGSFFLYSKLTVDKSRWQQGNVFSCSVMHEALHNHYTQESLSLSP
light: B1 light
notes: also called Ho Ab A327_13S
B4: GpH7-A5/GpH7-B3 variant S267_09D/GpL16-k0 (antibody, human IgG1, kappa)
heavy 1: not shown
heavy 2: not shown
light: B1 light
notes: also called He Ab S267_09D
B5: GpH7-A5/GpH7-B3 variant K334_07I/GpL16-k0 (antibody, human IgG1, kappa)
heavy 1: not shown
heavy 2: not shown
light: B1 light
notes: also called He Ab K334_07I
B6: GpH7-A5/GpH7-B3 variant K334_04F/GpL16-k0 (antibody, human IgG1, kappa)
heavy 1: not shown
heavy 2: not shown
light: B1 light
notes: also called He Ab K334_04F
B7: GpH7-A5/GpH7-B3 variant K326_06M/GpL16-k0 (antibody, human IgG1, kappa)
heavy 1: not shown
heavy 2: not shown
light: B1 light
notes: also called He Ab K326_06M
B8: GpH7-B3 variant A327_10E/GpL16-k0 (antibody, human IgG1, kappa)
heavy: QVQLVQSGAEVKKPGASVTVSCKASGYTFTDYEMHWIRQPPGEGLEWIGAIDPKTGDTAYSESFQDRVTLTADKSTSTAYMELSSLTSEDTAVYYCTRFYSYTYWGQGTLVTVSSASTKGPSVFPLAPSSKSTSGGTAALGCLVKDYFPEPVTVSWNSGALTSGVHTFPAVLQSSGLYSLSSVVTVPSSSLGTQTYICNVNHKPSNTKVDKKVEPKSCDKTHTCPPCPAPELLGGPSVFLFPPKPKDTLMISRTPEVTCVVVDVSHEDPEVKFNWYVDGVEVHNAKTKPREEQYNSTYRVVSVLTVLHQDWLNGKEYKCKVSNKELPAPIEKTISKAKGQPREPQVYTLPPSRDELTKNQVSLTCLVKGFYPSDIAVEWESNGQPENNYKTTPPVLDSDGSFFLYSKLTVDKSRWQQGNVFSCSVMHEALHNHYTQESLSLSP
light: B1 light
notes: also called Ho Ab A327_10E
B9: GpH7-A5/GpH7-B3 variant K326_07I/GpL16-k0 (antibody, human IgG1, kappa)
heavy 1: not shown
heavy 2: not shown
light: B1 light
notes: also called He Ab K326_07I
B10: GpH7-A5/GpH7-B3 variant I336_13S/GpL16-k0 (antibody, human IgG1, kappa)
heavy 1: not shown
heavy 2: not shown
light: B1 light
notes: also called He Ab I336_13S
B11: GpH7-B3 variant A330_05P/GpL16-k0 (antibody, human IgG1, kappa)
heavy: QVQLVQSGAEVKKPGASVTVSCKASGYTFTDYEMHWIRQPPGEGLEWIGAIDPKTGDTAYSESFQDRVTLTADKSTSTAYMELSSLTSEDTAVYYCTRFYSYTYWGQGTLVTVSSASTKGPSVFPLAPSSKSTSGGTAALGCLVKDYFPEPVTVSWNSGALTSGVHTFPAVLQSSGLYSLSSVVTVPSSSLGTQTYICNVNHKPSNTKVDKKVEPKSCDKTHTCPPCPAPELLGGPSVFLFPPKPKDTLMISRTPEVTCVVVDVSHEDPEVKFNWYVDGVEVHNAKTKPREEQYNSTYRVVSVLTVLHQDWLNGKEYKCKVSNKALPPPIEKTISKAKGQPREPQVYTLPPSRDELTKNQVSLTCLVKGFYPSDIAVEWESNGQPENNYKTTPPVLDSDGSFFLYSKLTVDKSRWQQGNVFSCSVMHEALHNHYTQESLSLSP
light: B1 light
notes: also called Ho Ab A330_05P
B12: GpH7-A5/GpH7-B3 variant I336_18N/GpL16-k0 (antibody, human IgG1, kappa)
heavy 1: not shown
heavy 2: not shown
light: B1 light
notes: also called He Ab I336_18N
B13: GpH7-B3 variant A327_06M/GpL16-k0 (antibody, human IgG1, kappa)
heavy: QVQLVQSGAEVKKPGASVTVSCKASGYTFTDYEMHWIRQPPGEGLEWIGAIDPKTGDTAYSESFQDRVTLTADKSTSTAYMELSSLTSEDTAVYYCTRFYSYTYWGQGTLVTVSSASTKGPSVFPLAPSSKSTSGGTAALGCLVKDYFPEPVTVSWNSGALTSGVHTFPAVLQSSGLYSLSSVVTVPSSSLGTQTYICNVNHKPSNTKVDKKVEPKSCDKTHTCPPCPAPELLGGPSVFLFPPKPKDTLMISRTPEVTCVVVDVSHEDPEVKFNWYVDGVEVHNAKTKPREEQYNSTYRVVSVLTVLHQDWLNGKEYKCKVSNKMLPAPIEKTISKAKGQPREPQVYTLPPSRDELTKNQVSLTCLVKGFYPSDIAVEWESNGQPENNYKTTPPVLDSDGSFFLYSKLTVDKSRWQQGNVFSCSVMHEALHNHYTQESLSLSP
light: B1 light
notes: also called Ho Ab A327_06M
B14: GpH7-A5/GpH7-B3 variant K334_08L/GpL16-k0 (antibody, human IgG1, kappa)
heavy 1: not shown
heavy 2: not shown
light: B1 light
notes: also called He Ab K334_08L
B15: GpH7-A5/GpH7-B3 variant S267_02A/GpL16-k0 (antibody, human IgG1, kappa)
heavy 1: not shown
heavy 2: not shown
light: B1 light
notes: also called He Ab S267_02A
B16: GpH7-B3 variant A327_09D/GpL16-k0 (antibody, human IgG1, kappa)
heavy: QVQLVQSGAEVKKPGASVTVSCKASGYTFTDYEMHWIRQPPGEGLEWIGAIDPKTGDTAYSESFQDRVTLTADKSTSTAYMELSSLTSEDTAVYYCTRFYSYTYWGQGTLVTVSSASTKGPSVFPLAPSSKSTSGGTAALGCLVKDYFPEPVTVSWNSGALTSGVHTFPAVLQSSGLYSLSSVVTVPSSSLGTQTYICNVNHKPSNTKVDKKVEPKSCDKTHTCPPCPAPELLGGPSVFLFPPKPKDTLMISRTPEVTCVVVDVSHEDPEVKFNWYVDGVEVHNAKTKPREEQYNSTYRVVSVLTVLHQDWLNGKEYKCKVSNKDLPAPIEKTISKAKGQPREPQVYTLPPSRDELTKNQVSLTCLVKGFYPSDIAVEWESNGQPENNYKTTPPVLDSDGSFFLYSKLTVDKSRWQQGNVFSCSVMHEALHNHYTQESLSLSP
light: B1 light
notes: also called Ho Ab A327_09D
B17: GpH7-A5/GpH7-B3 variant K334_19Q/GpL16-k0 (antibody, human IgG1, kappa)
heavy 1: not shown
heavy 2: not shown
light: B1 light
notes: also called He Ab K334_19Q
B18: GpH7-A5/GpH7-B3 variant K334_10E/GpL16-k0 (antibody, human IgG1, kappa)
heavy 1: not shown
heavy 2: not shown
light: B1 light
notes: also called He Ab K334_10E
B19: GpH7-A5/GpH7-B3 variant S337_10E/GpL16-k0 (antibody, human IgG1, kappa)
heavy 1: not shown
heavy 2: not shown
light: B1 light
notes: also called He Ab S337_10E
B20: GpH7-A5/GpH7-B3 variant T335_10E/GpL16-k0 (antibody, human IgG1, kappa)
heavy 1: not shown
heavy 2: not shown
light: B1 light
notes: also called He Ab T335_10E
B21: GpH7-A5/GpH7-B3 variant K334_15Y/GpL16-k0 (antibody, human IgG1, kappa)
heavy 1: not shown
heavy 2: not shown
light: B1 light
notes: also called He Ab K334_15Y
B22: GpH7-B3 variant A330_11K/GpL16-k0 (antibody, human IgG1, kappa)
heavy: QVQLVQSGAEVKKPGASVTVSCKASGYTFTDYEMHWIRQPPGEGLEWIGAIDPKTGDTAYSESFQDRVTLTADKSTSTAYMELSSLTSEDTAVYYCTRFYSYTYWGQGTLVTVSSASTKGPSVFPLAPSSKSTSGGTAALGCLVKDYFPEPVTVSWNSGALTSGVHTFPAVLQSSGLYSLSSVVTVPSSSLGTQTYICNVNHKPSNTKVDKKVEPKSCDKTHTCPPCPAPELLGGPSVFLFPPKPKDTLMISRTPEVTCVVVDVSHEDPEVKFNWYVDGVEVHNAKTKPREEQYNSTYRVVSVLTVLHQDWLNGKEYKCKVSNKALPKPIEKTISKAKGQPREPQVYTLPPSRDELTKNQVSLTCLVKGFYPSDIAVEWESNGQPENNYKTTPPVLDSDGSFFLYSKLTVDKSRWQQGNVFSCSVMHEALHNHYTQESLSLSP
light: B1 light
notes: also called Ho Ab A330_11K
B23: GpH7-A5/GpH7-B3 variant K326_09D/GpL16-k0 (antibody, human IgG1, kappa)
heavy 1: not shown
heavy 2: not shown
light: B1 light
notes: also called He Ab K326_09D
B24: GpH7-A5/GpH7-B3 variant K334_16H/GpL16-k0 (antibody, human IgG1, kappa)
heavy 1: not shown
heavy 2: not shown
light: B1 light
notes: also called He Ab K334_16H
B25: GpH7-B3 variant A327_07I/GpL16-k0 (antibody, human IgG1, kappa)
heavy: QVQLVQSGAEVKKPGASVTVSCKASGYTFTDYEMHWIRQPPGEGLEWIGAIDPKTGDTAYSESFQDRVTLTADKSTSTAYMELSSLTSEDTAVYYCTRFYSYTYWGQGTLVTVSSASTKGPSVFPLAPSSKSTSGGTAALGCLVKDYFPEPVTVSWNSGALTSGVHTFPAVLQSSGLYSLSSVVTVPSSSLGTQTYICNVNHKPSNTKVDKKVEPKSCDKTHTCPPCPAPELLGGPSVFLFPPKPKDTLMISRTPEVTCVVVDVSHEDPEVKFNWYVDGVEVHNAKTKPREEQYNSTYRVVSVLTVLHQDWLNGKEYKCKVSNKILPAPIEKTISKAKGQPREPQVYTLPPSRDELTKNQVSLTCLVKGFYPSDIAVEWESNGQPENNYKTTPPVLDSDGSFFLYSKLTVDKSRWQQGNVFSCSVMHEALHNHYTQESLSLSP
light: B1 light
notes: also called Ho Ab A327_07I
B26: GpH7-A5/GpH7-B3 variant K334_18N/GpL16-k0 (antibody, human IgG1, kappa)
heavy 1: not shown
heavy 2: not shown
light: B1 light
notes: also called He Ab K334_18N
B27: GpH7-A5/GpH7-B3 variant S239_09D/GpL16-k0 (antibody, human IgG1, kappa)
heavy 1: not shown
heavy 2: not shown
light: B1 light
notes: also called He Ab S239_09D
B28: GpH7-A5/GpH7-B3 variant K326_10E/GpL16-k0 (antibody, human IgG1, kappa)
heavy 1: not shown
heavy 2: not shown
light: B1 light
notes: also called He Ab K326_10E

Legend:
[1] = target: T1, FcγRIIIa extracellular domain with C-terminal His tag (human, UniProt P08637 17-208); test: SPR Biacore, captured antibody, FcγR analyte, relative binding
T1 construct: extracellular domain; also called FcgRIIIa; 3a; not shown: His tag attached to the C terminus
Outline: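 SPR, 25° C, HBS-EP+; Ab captured via immobilized antigen peptide (CM5 amine coupling or SA/biotin); FcγR in running buffer as analyte; regen 10 mM glycine-HCl pH 1.5.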

[2] = target: T2, FcγRIa (human, UniProt P12314 16-292); test: SPR (Biacore); Ho Ab relative to HoCon Ab = 100
T2 construct: extracellular domain; also called FcgRI; 1a
Experimental: Analysis of interaction between objective antibody and the FcγR was carried out using Biacore T100 (GE Healthcare). HBS-EP+ (GE Healthcare) was used as the running buffer, and the measurement temperature was set to 25° C. Chips produced by immobilizing the antigen peptide by the amine coupling method to a Series S Sencor Chip CM5 (GE Healthcare), or alternatively, chips produced by allowing preliminarily biotinylated antigen peptides to interact with and immobilize onto a Series S Sensor Chip SA (certified) (GE Healthcare) were used. Antibodies of interest were captured onto an antigen peptide-immobilized chip, and allowed to interact to each FcγR diluted with running buffer. To regenerate and repeatedly use the chip, the antibodies captured on the chip were washed off by reacting 10 mM glycine-HCl, pH 1.5.

T2 sequence (P12314 16-292): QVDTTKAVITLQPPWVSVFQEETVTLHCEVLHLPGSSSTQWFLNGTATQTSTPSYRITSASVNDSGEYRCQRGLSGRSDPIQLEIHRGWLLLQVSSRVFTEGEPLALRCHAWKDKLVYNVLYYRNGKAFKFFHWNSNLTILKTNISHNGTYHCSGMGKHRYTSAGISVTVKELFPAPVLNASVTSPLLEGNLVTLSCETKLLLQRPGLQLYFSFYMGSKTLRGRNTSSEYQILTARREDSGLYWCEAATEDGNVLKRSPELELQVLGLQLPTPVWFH
T1 sequence (P08637 17-208): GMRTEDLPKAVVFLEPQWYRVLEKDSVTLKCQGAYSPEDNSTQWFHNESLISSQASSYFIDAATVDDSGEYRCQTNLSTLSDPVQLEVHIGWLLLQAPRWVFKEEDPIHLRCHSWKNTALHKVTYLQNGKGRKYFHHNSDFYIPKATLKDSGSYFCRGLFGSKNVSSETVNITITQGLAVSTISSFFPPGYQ

| Binder | He/Con_3a [1] | Ho/Con_1a [2] |
| --- | --- | --- |
| B1 | 150 % of HeCon Ab GpH7-A5/GpH7-B3/GpL16-k0 (=100) | – |
| B2 | – | 94.4 % of control |
| B3 | – | 86.1 % of control |
| B4 | 181 % of HeCon Ab GpH7-A5/GpH7-B3/GpL16-k0 (=100) | – |
| B5 | 151 % of HeCon Ab GpH7-A5/GpH7-B3/GpL16-k0 (=100) | – |
| B6 | 148 % of HeCon Ab GpH7-A5/GpH7-B3/GpL16-k0 (=100) | – |
| B7 | 115 % of HeCon Ab GpH7-A5/GpH7-B3/GpL16-k0 (=100) | – |
| B8 | – | 98.8 % of control |
| B9 | 139 % of HeCon Ab GpH7-A5/GpH7-B3/GpL16-k0 (=100) | – |
| B10 | 102 % of HeCon Ab GpH7-A5/GpH7-B3/GpL16-k0 (=100) | – |
| B11 | – | 84.4 % of control |
| B12 | 104 % of HeCon Ab GpH7-A5/GpH7-B3/GpL16-k0 (=100) | – |
| B13 | – | 93.1 % of control |
| B14 | 143 % of HeCon Ab GpH7-A5/GpH7-B3/GpL16-k0 (=100) | – |
| B15 | 150 % of HeCon Ab GpH7-A5/GpH7-B3/GpL16-k0 (=100) | – |
| B16 | – | 102 % of control |
| B17 | 136 % of HeCon Ab GpH7-A5/GpH7-B3/GpL16-k0 (=100) | – |
| B18 | 181 % of HeCon Ab GpH7-A5/GpH7-B3/GpL16-k0 (=100) | – |
| B19 | 105 % of HeCon Ab GpH7-A5/GpH7-B3/GpL16-k0 (=100) | – |
| B20 | 107 % of HeCon Ab GpH7-A5/GpH7-B3/GpL16-k0 (=100) | – |
| B21 | 141 % of HeCon Ab GpH7-A5/GpH7-B3/GpL16-k0 (=100) | – |
| B22 | – | 94.1 % of control |
| B23 | 134 % of HeCon Ab GpH7-A5/GpH7-B3/GpL16-k0 (=100) | – |
| B24 | 134 % of HeCon Ab GpH7-A5/GpH7-B3/GpL16-k0 (=100) | – |
| B25 | – | 95.5 % of control |
| B26 | 136 % of HeCon Ab GpH7-A5/GpH7-B3/GpL16-k0 (=100) | – |
| B27 | 166 % of HeCon Ab GpH7-A5/GpH7-B3/GpL16-k0 (=100) | – |
| B28 | 124 % of HeCon Ab GpH7-A5/GpH7-B3/GpL16-k0 (=100) | – |

— US20150344570A1 (published 2015)
